Measurements taken from publication doi:10.1101/203372 (bioRxiv, 2017).

What was measured:
[1] = biological target: Ubiquitin, human, recombinant (tag-free mono-Ub) (human, UniProt P0CG48 1-76); assay: MST
[2] = biological target: Ubiquitin, human, recombinant, His-tag (His6-Ub) (human, UniProt P0CG48 1-76); assay: MST

Kd [1]: 1250 ± 147 nM | Kd [2]: 69 nM
B1: HDAC6-EGFP WT (full-length human histone deacetylase 6 fused to EGFP) (enzyme)
chain: MTSTGQDSTTTRQRRSRQNPQSPPQDSSVTSKRNIKKGAVPRSIPNLAEVKKKGKMKKLGQAMEEDLIVGLQGMDLNLEAEALAGTGLVLDEQLNEFHCLWDDSFPEGPERLHAIKEQLIQEGLLDRCVSFQARFAEKEELMLVHSLEYIDLMETTQYMNEGELRVLADTYDSVYLHPNSYSCACLASGSVLRLVDAVLGAEIRNGMAIIRPPGHHAQHSLMDGYCMFNHVAVAARYAQQKHRIRRVLIVDWDVHHGQGTQFTFDQDPSVLYFSIHRYEQGRFWPHLKASNWSTTGFGQGQGYTINVPWNQVGMRDADYIAAFLHVLLPVALEFQPQLVLVAAGFDALQGDPKGEMAATPAGFAQLTHLLMGLAGGKLILSLEGGYNLRALAEGVSASLHTLLGDPCPMLESPGAPCRSAQASVSCALEALEPFWEVLVRSTETVERDNMEEDNVEESEEEGPWEPPVLPILTWPVLQSRTGLVYDQNMMNHCNLWDSHHPEVPQRILRIMCRLEELGLAGRCLTLTPRPATEAELLTCHSAEYVGHLRATEKMKTRELHRESSNFDSIYICPSTFACAQLATGAACRLVEAVLSGEVLNGAAVVRPPGHHAEQDAACGFCFFNSVAVAARHAQTISGHALRILIVDWDVHHGNGTQHMFEDDPSVLYVSLHRYDHGTFFPMGDEGASSQIGRAAGTGFTVNVAWNGPRMGDADYLAAWHRLVLPIAYEFNPELVLVSAGFDAARGDPLGGCQVSPEGYAHLTHLLMGLASGRIILILEGGYNLTSISESMAACTRSLLGDPPPLLTLPRPPLSGALASITETIQVHRRYWRSLRVMKVEDREGPSSSKLVTKKAPQPAKPRLAERMTTREKKVLEAGMGKVTSASFGEESTPGQTNSETAVVALTQDQPSEAATGGATLAQTISEAAIGGAMLGQTTSEEAVGGATPDQTTSEETVGGAILDQTTSEDAVGGATLGQTTSEEAVGGATLAQTTSEAAMEGATLDQTTSEEAPGGTELIQTPLASSTDHQTPPTSPVQGTTPQISPSTLIGSLRTLELGSESQGASESQAPGEENLLGEAAGGQDMADSMLMQGSRGLTDQAIFYAVTPLPWCPHLVAVCPIPAAGLDVTQPCGDCGTIQENWVCLSCYQVYCGRYINGHMLQHHGNSGHPLVLSYIDLSAWCYYCQAYVHHQALLDVKNIAHQNKFGEDMPHPH
